Columns and labels:
[1] = target: MsFcγRIα-EGFP (largemouth bass FcγRIα fused to EGFP, expressed on transfected HEK293 cells) (largemouth bass (Micropterus salmoides)); assay: flow cytometry on cells; MsFcγRIα-EGFP-transfected HEK293 cells in serum-free DMEM, 20 μg/mL purified MsIgM added for 24 h at 37 °C; bound MsIgM detected with anti-MsIgM mAb MM06H and Alexa Fluor 647 goat anti-mouse IgG; n = 3
[2] = target: MsFcγRIα-EGFP (largemouth bass FcγRIα fused to EGFP, expressed on transfected HEK293 cells) (largemouth bass (Micropterus salmoides)); assay: flow cytometry on cells; MsFcγRIα-EGFP-transfected HEK293 cells in serum-free DMEM, 20 μg/mL purified MsIgM added for 12 h at 37 °C; bound MsIgM detected with anti-MsIgM mAb MM06H and Alexa Fluor 647 goat anti-mouse IgG; n = 3
[3] = target: MsFcγRIα-EGFP (largemouth bass FcγRIα fused to EGFP, expressed on transfected HEK293 cells) (largemouth bass (Micropterus salmoides)); assay: flow cytometry on cells; MsFcγRIα-EGFP-transfected HEK293 cells in serum-free DMEM, 20 μg/mL purified MsIgM added for 6 h at 37 °C; bound MsIgM detected with anti-MsIgM mAb MM06H and Alexa Fluor 647 goat anti-mouse IgG; n = 3

**Q.** For “largemouth bass IgM (MsIgM), purified from serum (natural protein)”, which percent of MsFcγRIα-expressing HEK293 cells with MsIgM after 24 h incubation [1] is on record?
**A.** Its percent of MsFcγRIα-expressing HEK293 cells with MsIgM after 24 h incubation is 40.3%.

**Q.** What about the percent of MsFcγRIα-expressing HEK293 cells with MsIgM after 12 h incubation [2] of the same substance?
**A.** Its percent of MsFcγRIα-expressing HEK293 cells with MsIgM after 12 h incubation is 26.3%.

**Q.** What about the percent of MsFcγRIα-expressing HEK293 cells with MsIgM after 6 h incubation [3] of the same substance?
**A.** Its percent of MsFcγRIα-expressing HEK293 cells with MsIgM after 6 h incubation is 19.7%.
